In patent US20160272683A1 (Novo Nordisk, published 2016):
Numbered stars: 1 amine (or outer) side, 2 acyl side, 3 side chain; on linkers, the order of the positions; unused ones are H or OH. Side chains are listed from the residue outwards. Ends that are not written are not given here. * marks the point of attachment. C20 diacid = O=C(O)CCCCCCCCCCCCCCCCCCC(=O)*; C16 diacid = O=C(O)CCCCCCCCCCCCCCC(=O)*; γGlu = O=C(O)[C@H](CCC(=O)[*:2])N[*:1]; C14 diacid = O=C(O)CCCCCCCCCCCCC(=O)*; AEEA = NCCOCCOCC(=O)O

What was measured:
[1] = target: T1, human amylin 3(a) receptor (human calcitonin receptor co-expressed with RAMP-3) (human, UniProt P30988 25-474; O60896 24-148, limits assumed); assay: cell-based or functional assay
T1 sequence (looked up) 1: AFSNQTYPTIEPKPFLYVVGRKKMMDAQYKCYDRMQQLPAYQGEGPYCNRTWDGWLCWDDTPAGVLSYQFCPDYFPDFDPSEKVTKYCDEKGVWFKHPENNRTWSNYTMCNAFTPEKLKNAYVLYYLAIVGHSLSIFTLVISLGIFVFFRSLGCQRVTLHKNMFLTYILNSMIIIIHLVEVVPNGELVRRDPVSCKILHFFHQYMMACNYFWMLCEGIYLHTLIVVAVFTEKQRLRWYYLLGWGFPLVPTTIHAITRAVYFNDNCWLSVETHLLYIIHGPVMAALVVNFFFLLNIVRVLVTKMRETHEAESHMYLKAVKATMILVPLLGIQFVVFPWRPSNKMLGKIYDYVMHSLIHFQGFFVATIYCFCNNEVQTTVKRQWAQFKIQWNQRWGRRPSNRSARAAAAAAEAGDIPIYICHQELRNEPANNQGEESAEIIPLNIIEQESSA
T1 sequence (looked up) 2: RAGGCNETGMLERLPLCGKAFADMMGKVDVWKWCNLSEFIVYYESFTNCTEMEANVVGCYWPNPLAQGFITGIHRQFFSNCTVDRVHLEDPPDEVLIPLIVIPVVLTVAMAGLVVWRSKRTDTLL

[2] = target: T2, human calcitonin receptor (human, UniProt P30988 25-474); assay: cell-based or functional assay
T2 sequence (looked up): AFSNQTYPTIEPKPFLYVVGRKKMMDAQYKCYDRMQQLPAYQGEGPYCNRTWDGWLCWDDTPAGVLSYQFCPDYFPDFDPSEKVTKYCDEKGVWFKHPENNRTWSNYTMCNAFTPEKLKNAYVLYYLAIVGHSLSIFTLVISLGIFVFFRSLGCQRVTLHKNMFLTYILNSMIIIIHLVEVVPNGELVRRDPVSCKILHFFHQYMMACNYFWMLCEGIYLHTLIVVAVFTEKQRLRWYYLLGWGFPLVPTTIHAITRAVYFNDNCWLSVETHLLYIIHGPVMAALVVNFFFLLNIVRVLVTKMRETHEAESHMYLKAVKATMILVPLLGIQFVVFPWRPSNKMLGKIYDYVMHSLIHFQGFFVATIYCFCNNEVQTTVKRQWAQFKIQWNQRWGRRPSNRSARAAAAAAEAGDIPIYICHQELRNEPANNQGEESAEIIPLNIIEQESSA

Row | Binder | hAmylin-R funct. EC50 (pM) [1] [pM] | hCTR funct. EC50 (pM) [2] [pM]
1 | {C14 diacid}-EASELSTAALGRLSAELHELATLPRTETGPESP-NH2 [[N-terminal(C14 diacid)]mimylin] | 6 | 2
2 | {C16 diacid}-ASELSTAALGRLSAELHELATLPRTETGSGSP-NH2 [[N-terminal(C16 diacid), des1, 30S, 31G]mimylin] | 10 | 10
3 | {C14 diacid-γGlu}-ASELSTAALGRLSAELHELATLPRTETGSGSP-NH2 [[N-terminal(C14 diacid-gGlu), des1, 30S, 31G]mimylin] | 6 | 4
4 | {C14 diacid}-ASELSTAALGRLSAELHELATLPRTETGSGSP-NH2 [[N-terminal(C14 diacid), des1, 30S, 31G]mimylin] | 7 | 5
5 | ASK([γGlu-C20 diacid])LSTAALGRLSAELHELATLPRTETGSGSP-NH2 (N-terminus assumed; SMILES CC(C)C[C@H](NC(=O)[C@H](C)NC(=O)[C@H](C)NC(=O)[C@@H](NC(=O)[C@H](CO)NC(=O)[C@H](CC(C)C)NC(=O)[C@H](CCCCNC(=O)CC[C@H](NC(=O)CCCCCCCCCCCCCCCCCCC(=O)O)C(=O)O)NC(=O)[C@H](CO)NC(=O)[C@H](C)N)[C@@H](C)O)C(=O)NCC(=O)N[C@@H](CCCNC(=N)N)C(=O)N[C@@H](CC(C)C)C(=O)N[C@@H](CO)C(=O)N[C@@H](C)C(=O)N[C@@H](CCC(=O)O)C(=O)N[C@@H](CC(C)C)C(=O)N[C@@H](Cc1c[nH]cn1)C(=O)N[C@@H](CCC(=O)O)C(=O)N[C@@H](CC(C)C)C(=O)N[C@@H](C)C(=O)N[C@H](C(=O)N[C@@H](CC(C)C)C(=O)N1CCC[C@H]1C(=O)N[C@@H](CCCNC(=N)N)C(=O)N[C@H](C(=O)N[C@@H](CCC(=O)O)C(=O)N[C@H](C(=O)NCC(=O)N[C@@H](CO)C(=O)NCC(=O)N[C@@H](CO)C(=O)N1CCC[C@H]1C(N)=O)[C@@H](C)O)[C@@H](C)O)[C@@H](C)O) [[des1, 4K(C20 diacid-gGlu), 30S, 31G]mimylin] | 39 | 34
6 | ASELSTAALGRLSAK([γGlu-C20 diacid])LHELATLPRTETGSGSP-NH2 (N-terminus assumed; SMILES CC(C)C[C@H](NC(=O)[C@H](C)NC(=O)[C@H](C)NC(=O)[C@@H](NC(=O)[C@H](CO)NC(=O)[C@H](CC(C)C)NC(=O)[C@H](CCC(=O)O)NC(=O)[C@H](CO)NC(=O)[C@H](C)N)[C@@H](C)O)C(=O)NCC(=O)N[C@@H](CCCNC(=N)N)C(=O)N[C@@H](CC(C)C)C(=O)N[C@@H](CO)C(=O)N[C@@H](C)C(=O)N[C@@H](CCCCNC(=O)CC[C@H](NC(=O)CCCCCCCCCCCCCCCCCCC(=O)O)C(=O)O)C(=O)N[C@@H](CC(C)C)C(=O)N[C@@H](Cc1c[nH]cn1)C(=O)N[C@@H](CCC(=O)O)C(=O)N[C@@H](CC(C)C)C(=O)N[C@@H](C)C(=O)N[C@H](C(=O)N[C@@H](CC(C)C)C(=O)N1CCC[C@H]1C(=O)N[C@@H](CCCNC(=N)N)C(=O)N[C@H](C(=O)N[C@@H](CCC(=O)O)C(=O)N[C@H](C(=O)NCC(=O)N[C@@H](CO)C(=O)NCC(=O)N[C@@H](CO)C(=O)N1CCC[C@H]1C(N)=O)[C@@H](C)O)[C@@H](C)O)[C@@H](C)O) [[des1, 16K(C20 diacid-gGlu), 30S, 31G]mimylin] | 22 | 31
7 | ASELSTAALGRLSAELHK([γGlu-C20 diacid])LATLPRTETGSGSP-NH2 (N-terminus assumed; SMILES CC(C)C[C@H](NC(=O)[C@H](C)NC(=O)[C@H](C)NC(=O)[C@@H](NC(=O)[C@H](CO)NC(=O)[C@H](CC(C)C)NC(=O)[C@H](CCC(=O)O)NC(=O)[C@H](CO)NC(=O)[C@H](C)N)[C@@H](C)O)C(=O)NCC(=O)N[C@@H](CCCNC(=N)N)C(=O)N[C@@H](CC(C)C)C(=O)N[C@@H](CO)C(=O)N[C@@H](C)C(=O)N[C@@H](CCC(=O)O)C(=O)N[C@@H](CC(C)C)C(=O)N[C@@H](Cc1c[nH]cn1)C(=O)N[C@@H](CCCCNC(=O)CC[C@H](NC(=O)CCCCCCCCCCCCCCCCCCC(=O)O)C(=O)O)C(=O)N[C@@H](CC(C)C)C(=O)N[C@@H](C)C(=O)N[C@H](C(=O)N[C@@H](CC(C)C)C(=O)N1CCC[C@H]1C(=O)N[C@@H](CCCNC(=N)N)C(=O)N[C@H](C(=O)N[C@@H](CCC(=O)O)C(=O)N[C@H](C(=O)NCC(=O)N[C@@H](CO)C(=O)NCC(=O)N[C@@H](CO)C(=O)N1CCC[C@H]1C(N)=O)[C@@H](C)O)[C@@H](C)O)[C@@H](C)O) [[des1, 19K(C20 diacid-gGlu), 30S, 31G]mimylin] | 28 | 19
8 | {C14 diacid-γGlu-γGlu-AEEA-AEEA-AEEA-AEEA}-EASELSTAALGRLSAELHELATLPRTETGPESP-NH2 [[N-terminal(C14 diacid-2xgGlu-4xOEG)]mimylin] | 27 | 7
9 | {C20 diacid-γGlu}-ASELSTAALGRLSAELHELATYPRTETGSGSP-NH2 (SMILES CC(C)C[C@H](NC(=O)[C@H](C)NC(=O)[C@H](C)NC(=O)[C@@H](NC(=O)[C@H](CO)NC(=O)[C@H](CC(C)C)NC(=O)[C@H](CCC(=O)O)NC(=O)[C@H](CO)NC(=O)[C@H](C)NC(=O)CC[C@H](NC(=O)CCCCCCCCCCCCCCCCCCC(=O)O)C(=O)O)[C@@H](C)O)C(=O)NCC(=O)N[C@@H](CCCNC(=N)N)C(=O)N[C@@H](CC(C)C)C(=O)N[C@@H](CO)C(=O)N[C@@H](C)C(=O)N[C@@H](CCC(=O)O)C(=O)N[C@@H](CC(C)C)C(=O)N[C@@H](Cc1c[nH]cn1)C(=O)N[C@@H](CCC(=O)O)C(=O)N[C@@H](CC(C)C)C(=O)N[C@@H](C)C(=O)N[C@H](C(=O)N[C@@H](Cc1ccc(O)cc1)C(=O)N1CCC[C@H]1C(=O)N[C@@H](CCCNC(=N)N)C(=O)N[C@H](C(=O)N[C@@H](CCC(=O)O)C(=O)N[C@H](C(=O)NCC(=O)N[C@@H](CO)C(=O)NCC(=O)N[C@@H](CO)C(=O)N1CCC[C@H]1C(N)=O)[C@@H](C)O)[C@@H](C)O)[C@@H](C)O) [[N-terminal(C20 diacid-gGlu), des1, 23Y, 30S, 31G]mimylin] | 22 | 23
10 | {C20 diacid-γGlu}-AASELSTAALGRLSAELHELATYPRTETGSGSP-NH2 (SMILES CC(C)C[C@H](NC(=O)[C@H](C)NC(=O)[C@H](C)NC(=O)[C@@H](NC(=O)[C@H](CO)NC(=O)[C@H](CC(C)C)NC(=O)[C@H](CCC(=O)O)NC(=O)[C@H](CO)NC(=O)[C@H](C)NC(=O)[C@H](C)NC(=O)CC[C@H](NC(=O)CCCCCCCCCCCCCCCCCCC(=O)O)C(=O)O)[C@@H](C)O)C(=O)NCC(=O)N[C@@H](CCCNC(=N)N)C(=O)N[C@@H](CC(C)C)C(=O)N[C@@H](CO)C(=O)N[C@@H](C)C(=O)N[C@@H](CCC(=O)O)C(=O)N[C@@H](CC(C)C)C(=O)N[C@@H](Cc1c[nH]cn1)C(=O)N[C@@H](CCC(=O)O)C(=O)N[C@@H](CC(C)C)C(=O)N[C@@H](C)C(=O)N[C@H](C(=O)N[C@@H](Cc1ccc(O)cc1)C(=O)N1CCC[C@H]1C(=O)N[C@@H](CCCNC(=N)N)C(=O)N[C@H](C(=O)N[C@@H](CCC(=O)O)C(=O)N[C@H](C(=O)NCC(=O)N[C@@H](CO)C(=O)NCC(=O)N[C@@H](CO)C(=O)N1CCC[C@H]1C(N)=O)[C@@H](C)O)[C@@H](C)O)[C@@H](C)O) [[N-terminal(C20 diacid-gGlu), 1A, 23Y, 30S, 31G]mimylin] | 20 | 22
